Assay results as given in patent US20260049105A1 (ARIZONA BOARD OF REGENTS ON BEHALF OF THE UNIVERSITY OF …, published 2026).

Tests used:
[1] = target: T1, human melanocortin 3 receptor (human, UniProt P41968 1-323); test: competition with 125I-NDP-α-MSH, cells expressing hMC3R
T1 construct: whole, on cells; also called hMC3R; hM3CR

[2] = target: T2, human melanocortin 1 receptor (human, UniProt Q01726 1-317); test: competition with 125I-NDP-α-MSH, cells expressing hMC1R
T2 construct: whole, on cells; also called hMC1R; hM1CR

[3] = target: human melanocortin 4 receptor (human, UniProt P32245 1-332); test: cell-based or functional assay
[4] = target: T2, human melanocortin 1 receptor; test: cell-based or functional assay
[5] = target: T1, human melanocortin 3 receptor; test: cell-based or functional assay
[6] = target: human melanocortin 5 receptor (human, UniProt P33032 1-325); test: cell-based or functional assay
human melanocortin 5 receptor, sequence (P33032 whole entry): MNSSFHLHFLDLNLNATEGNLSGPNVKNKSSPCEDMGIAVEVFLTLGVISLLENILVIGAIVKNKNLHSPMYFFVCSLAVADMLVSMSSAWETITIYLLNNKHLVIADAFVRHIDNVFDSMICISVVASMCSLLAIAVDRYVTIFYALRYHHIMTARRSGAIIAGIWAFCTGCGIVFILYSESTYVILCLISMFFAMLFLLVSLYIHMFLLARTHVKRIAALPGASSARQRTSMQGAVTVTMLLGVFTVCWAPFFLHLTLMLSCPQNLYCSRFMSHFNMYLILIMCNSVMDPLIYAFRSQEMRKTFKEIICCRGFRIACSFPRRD

T2 sequence (Q01726 whole entry): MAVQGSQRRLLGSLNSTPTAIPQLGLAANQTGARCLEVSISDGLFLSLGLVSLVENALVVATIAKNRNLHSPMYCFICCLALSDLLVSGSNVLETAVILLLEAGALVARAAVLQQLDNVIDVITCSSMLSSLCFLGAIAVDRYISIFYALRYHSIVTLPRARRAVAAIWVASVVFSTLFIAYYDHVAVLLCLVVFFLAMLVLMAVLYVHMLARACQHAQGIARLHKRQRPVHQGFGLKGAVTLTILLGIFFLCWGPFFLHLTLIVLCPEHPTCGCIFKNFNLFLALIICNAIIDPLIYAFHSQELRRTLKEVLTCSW
T1 sequence (P41968 whole entry): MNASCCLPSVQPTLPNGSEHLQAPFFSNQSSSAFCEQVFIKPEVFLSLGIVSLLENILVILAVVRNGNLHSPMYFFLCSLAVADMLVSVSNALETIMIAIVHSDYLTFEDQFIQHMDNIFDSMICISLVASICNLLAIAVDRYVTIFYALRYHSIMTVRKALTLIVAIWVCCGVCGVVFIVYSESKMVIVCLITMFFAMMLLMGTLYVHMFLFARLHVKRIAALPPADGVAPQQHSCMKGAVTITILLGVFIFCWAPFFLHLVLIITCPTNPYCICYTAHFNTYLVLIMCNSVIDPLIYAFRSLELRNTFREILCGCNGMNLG
human melanocortin 4 receptor, sequence (P32245 whole entry): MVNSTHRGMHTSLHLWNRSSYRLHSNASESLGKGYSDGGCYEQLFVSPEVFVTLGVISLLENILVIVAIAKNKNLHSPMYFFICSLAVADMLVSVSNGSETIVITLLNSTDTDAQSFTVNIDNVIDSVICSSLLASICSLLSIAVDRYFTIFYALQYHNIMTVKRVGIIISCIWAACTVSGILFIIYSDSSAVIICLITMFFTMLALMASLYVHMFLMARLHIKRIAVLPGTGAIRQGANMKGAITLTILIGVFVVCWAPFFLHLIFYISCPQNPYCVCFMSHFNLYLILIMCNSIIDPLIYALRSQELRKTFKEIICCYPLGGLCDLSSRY

B1: Ac-Arg-cyclo[Asp-Pip-D-Phe(4-F)-βArg-Trp-Lys]-NH2 (peptide)
peptide: RDXFRWK
modifications: not fully specified; N-terminal acetyl (Ac); C-terminal amide (NH2); cyclized through the side chains of Asp2 and Lys7; Pip at 3; D-Phe(4-F) at 4; βArg at 5
notes: Synthetic cyclic peptide; also called compound 5; analogue 5
IC50 [1]: 59 nM | IC50 [2]: 14 nM | EC50 (nM), cAMP accumulation [3]: > 1000 nM | Act % [4]: 100% | EC50 (nM), cAMP accumulation [4]: 340 nM | Act % [5]: 59% | EC50 (nM), cAMP accumulation [5]: > 1000 nM | Act % [6]: 62% | EC50 (nM), cAMP accumulation [6]: > 1000 nM
